Measurements: patent US9273342B2, “Methods and systems for evaluating and predicting the reactivity of monooxygenase enzymes” (University of Rochester, priority 2011, dated 2016)
Several values for one entry are separate records, joined by “and”; a condition that tells them apart may be missing. Identical values can stand only once.

Columns and labels:
Type in all cases: biochemical
[1] = Fingerprinting: demethylation activity on methoxy probes 1-5, Purpald colorimetric assay; details: formaldehyde formation, FIG. 5A
Description: To test the viability of compounds I-5 as probes, the fatty acid hydroxylase CYP102A1 (SEQ ID NO 1) from Bacillus megaterium and […] engineered variants thereof (SEQ ID NO 3, SEQ ID NO 4, SEQ ID NO 5, SEQ ID NO 6, SEQ ID NO 8, SEQ ID NO 11, SEQ ID NO 12, SEQ ID NO 14, SEQ ID NO 15) were fingerprinted. […] Parallel reactions with 1-5 were carried out using these P450s in purified form and a NADPH cofactor regeneration system containing a […] (PTDH).
We investigated the utility of these probes for high-throughput profiling of a large library of engineered monooxygenase variants. […] The P450 libraries were expressed in 96-well plates (DH5a cells) and screened against probes 1-5 in parallel to acquire a fingerprint for each functional P450 variant occurring in these libraries. Reactions with the probes (1 mM, 60 min) were carried out using cell lysate in the presence of the phosphite/PTDH cofactor regeneration system, and probe activity was quantified based on absorbance at 550 nm after 60-min incubation with Purpald (30 mM). […] This example illustrates how probes of general formula II such as compound 1-5 could be used for fingerprinting a large library of monooxygenases in a high throughput manner.
Expression and Fingerprinting of P450 Libraries in 96-Well Plates. 96-deep well plates containing 400 μL LB medium (100 mg ampicillin L-1) per well were inoculated with single colonies from the P450 libraries. The total number of screened P450 variants was about 10,000. In each plate, 8 wells were inoculated with the parent enzyme FL#62. […] P450 demethylation activity on probe 1-5 was measured in parallel reactions with the aid of a Beckman Coulter Multimek 96 automated pipettor and a TECAN Infinity plate reader. […] After incubation for 1 hour at room temperature, plates were added with 50 μL 2 M NaOH containing 150 mM Purpald and the absorbance at 550 nm measured using the plate reader. The measured demethylation activity of each P450 variant on the five probes was then normalized to the activity of the parent enzyme FL#62 (SEQ ID NO 15) from the same plate. […]

[2] = Regio- and stereoselectivity (site-selectivity) of ART hydroxylation, product distribution by HPLC
Text: (§1) Additional 5,000 FL#62-derived variants were produced by simultaneous active-site mutagenesis and subjected to high throughout fingerprinting as described in Example 2. From the acquired fingerprint data, 259 functionally diverse variants (i.e., with a unique fingerprint) were isolated according to the procedure described in Example 2 and combined with the previously isolated 261 variants (Example 2), to yield a collection of 520 functionally diverse, fingerprinted monooxygenases. From this pool, twenty monooxygenases were randomly isolated to serve as the training set for generating a fingerprint model predictive of ART-reactivity and ranking the members of the monooxygenase library according to this reactivity property, as schematically illustrated in FIG. 13. The ART oxygenation activity of the training set P450s was characterized by LC-MS analysis of reactions with ART and each of these variants and quantified in terms of total turnovers (TTN). […] The fingerprints of the training set P450s (both ART-reactive and ART-unreactive) were then correlated with the measured ART activities (TTN values) by multiple linear regression (MLR) analysis, where ART activity is the dependent variable, Y, and the five components of their fingerprints (corresponding to the normalized activities on probes 1-5) are five independent variables (x1, x2, x3, x4, x5) potentially correlated with Y. This process yielded best-fit regression coefficients for the training set and a candidate fingerprint-based model (Y=0.44x1+0.52x2+0.44x3+0.72x4+0.47x5) predictive of ART-reactivity. Using this model, the remaining P450s in the 520-member collection of fingerprinted P450s were ranked (from highest to lowest predicted ART-reactivity). The 50 top-ranking variants as well as the 20 bottom-ranking variants were then tested experimentally in order to validate the predictions.
Measurement of Monooxygenase Activity on Artemisinin (ART). These isolated ART hydroxylation products were used as standards to generate calibration curves for quantifying ART-hydroxylation activity of FL#62 and the other monooxygenases. This activity was measured as total turnovers via quantification of the hydroxylation products from enzymatic reactions via derivatization with benzoyl chloride followed by HPLC analysis. Briefly, after the enzymatic reaction (0.5 mM ART, 1 μM P450 variant (purified or in cell lysate); 2 μM […], 100 μM NADP^+, 50 mM phosphoric acid), the mixture was added with 9-fluorenone as internal standard (0.5 mM) and extracted with dicholoromethane (0.2 mL). After removing the solvent, the residue was added with 0.1 mL dichloromethane, benzoyl chloride (5 equiv.), and DMAP (10 equiv.) for 3 hours at room temperature. The derivatized products (benzoyl esters) were analyzed using an Agilent 1200 UPLC. Analytical condition: Agilent XDB-C18 column (1.8 um, 4.4×50 mm); UV wavelength: 230 nm; Solvent A: 1% trifluoroacetic acid in deionized H2O; Solvent B: 1% formic acid in acetonitrile. gradient condition: 0-1 min: 20% B; 1-8 mins: 20% B to 90% B; 8-10 mins: 90% B; […]: 90% B to 20% B; 10.3-11.3 min: 20% B. Flow rate: 0.8 mL/min. The area under the curve (AUC) corresponding to the ART hydroxylated products were normalized to the internal standard AUC and used to quantify these products using the calibration curves. Total turnover numbers were calculated from number of mol hydroxylation products/mol enzyme. […]

[3] = Monooxygenase activity on artemisinin (ART), total turnovers by HPLC after benzoyl chloride derivatization; details: 0.5 mM ART, 1 μM P450 variant; mol hydroxylation products/mol enzyme
Text: as §1, with “From this pool, twenty monooxygenases were randomly isolated to serve as the training set for generating a fingerprint model predictive of ART-reactivity and ranking the members of the monooxygenase library according to this reactivity property, as schematically illustrated in FIG. 13.” left out, “Using this model, the remaining P450s in the 520-member collection of fingerprinted P450s were ranked (from highest to lowest predicted ART-reactivity). The 50 top-ranking variants as well as the 20 bottom-ranking variants were then tested experimentally in order to validate the predictions.” left out

B1: FL#62: engineered variant of P450 monooxygenase CYP102A1, SEQ ID NO 15, parent of the libraries (protein)
chain: MTIKEMPQPKTFGELKNLPLLNTDKPVQALMKIADELGEIFKFEAPGRVTRYLSSQRLIKEACDESRFDKNLSQALKFARDSVGDGLATSWTHEKNWKKAHNILLPSFSQQAMKGYHAMMVDIAVQLVQKWERLNADEHIEVSEDMTRLTLDTIGLCGFNYRFNSFYRDQPHPFIISMVRTLDEVMNKLQRANPDDPVYDENKRQCQEDIKVMNDLVDKIIADRKARGEQSDDLLTQMLNGKDPETGEPLDDGNISYQIITFLIAGHETTSGLLSFALYFLVKNPHVLQKVAEEAARVLVDPVPSYKQVKQLKYVGMVLNEALRLWPTAPAFSLYAKEDTVLGGEYPLEKGDEVMVLIPQLHRDKTIWGDDVEEFRPERFENPSAIPQHAFKPFGNGQRACIGQQFALHEATLVLGMMLKHFDFEDHTNYELDIKETLTLKPEGFVVKAKSKKIPLGGIPSPSTEQSAKKVRKKAENAHNTPLLVLYGSNMGTAEGTARDLADIAMSKGFAPQVATLDSHAGNLPREGAVLIVTASYNGHPPDNAKQFVDWLDQASADEVKGVRYSVFGCGDKNWATTYQKVPAFIDETLAAKGAENIADRGEADASDDFEGTYEEWREHMWSDVAAYFNLDIENSEDNKSTLSLQFVDSAADMPLAKMHGAFSTNVVASKELQQPGSARSTRHLEIELPKEASYQEGDHLGVIPRNYEGIVNRVTARFGLDASQQIRLEAEEEKLAHLPLAKTVSVEELLQYVELQDPVTRTQLRAMAAKTVCPPHKVELEALLEKQAYKEQVLAKRLTMLELLEKYPACEMKFSEFIALLPSIRPRYYSISSSPRVDEKQASITVSVVSGEAWSGYGEYKGIASNYLAELQEGDTITCFISTPQSEFTLPKDPETPLIMVGPGTGVAPFRGFVQARKQLKEQGQSLGEAHLYFGCRSPHEDYLYQEELENAQSEGIITLHTAFSRMPNQPKTYVQHVMEQDGKKLIELLDQGAHFYICGDGSQMAPAVEATLMKSYADVHQVSEADARLWLQQLEEKGRYAKDVWAG
[1]
  probe activity on probes 1-5 (in words): high activity on all the probes
[2]
  selectivity for the desired site ((S)-C7 ART hydroxylation, regio- and stereoselectivity): 83%
[2]; ART hydroxylation products
  C6a-hydroxy-ART, share in product ratio C7(S):C7(R):C6a: 7
  C7(R)-hydroxy-ART, share in product ratio C7(S):C7(R):C6a: 10
  C7(S)-hydroxy-ART, share in product ratio C7(S):C7(R):C6a: 83
[2]; fraction used for the fingerprint-site reactivity correlation
  site-selectivity value for (S)-C7 ART hydroxylation: 0.83
[3]
  total turnovers (TTN) for ART hydroxylation: 340 TTN and 339 TTN
